Source: US20130287702A1 (CASE WESTERN RESERVE UNIVERSITY, published 2013)
Where no end group is shown, it is not given here.

Tests used:
[1] = biological target: T1, proteolytically cleaved PTPµ extracellular fragment in tumors of human LN-229 glioma cells (human, UniProt P28827 21-477, limits assumed); experiment: in vivo labeling of glioma intracranial tumors, Cy5 cryo-imaging
T1 construct: The target is endogenous material deposited in tumor tissue, not a purified protein; also called proteolyzed extracellular fragment of PTPµ; PTPµ fragment
T1 sequence: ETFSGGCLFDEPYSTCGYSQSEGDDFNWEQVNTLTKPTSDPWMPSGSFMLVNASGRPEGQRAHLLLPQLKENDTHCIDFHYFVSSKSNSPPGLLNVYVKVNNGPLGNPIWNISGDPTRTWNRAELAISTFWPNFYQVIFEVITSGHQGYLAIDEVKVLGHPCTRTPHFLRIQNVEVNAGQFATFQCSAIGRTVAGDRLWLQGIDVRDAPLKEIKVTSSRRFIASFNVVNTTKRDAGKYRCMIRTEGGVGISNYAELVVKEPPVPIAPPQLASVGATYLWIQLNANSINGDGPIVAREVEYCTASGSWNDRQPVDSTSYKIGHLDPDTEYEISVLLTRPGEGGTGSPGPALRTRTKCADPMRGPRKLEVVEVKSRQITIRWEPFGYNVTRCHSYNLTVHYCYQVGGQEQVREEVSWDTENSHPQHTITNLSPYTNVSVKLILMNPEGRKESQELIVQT

[2] = biological target: T1, proteolytically cleaved PTPµ …; experiment: fluorescent probe labeling of fixed LN-229-GFP flank tumor sections
Source text: The sections were rinsed with phosphate-buffered saline, coverslipped with Citifluor Antifadent Mounting Medium (Electron Microscopy Sciences), and imaged immediately at ×20 magnification on a Leica DMI 6000 B inverted microscope (Leica Microsystems GmbH, Wetzlar, Germany) using a Retiga EXi camera (QImaging, Surrey, BC) and Metamorph software (MolecularDevices, Downington, Pa.). Images were acquired across the entire tissue using bright-field and fluorescence optics for fluorescein (GFP) and Texas Red (probe). The resultant images were tiled and flattened to form a single composite image using Metamorph software.
Zoomed MR and corresponding heat map images for the tumor are shown (FIG. 15A). […] The corresponding flank tumor sections were incubated with SBK2-Texas Red or scrambled Texas Red probes. SBK2-Texas Red labeled the entire tumor with greatest intensity in the tumor center (FIG. 15B). This pattern is similar to that observed in the MR images following labeling with the SBK2-Tris-(Gd-DOTA)₃ probe. […] Anti-human vimentin antibody was used to label all the human cells in the mouse flank. […] Similar gradients of PTPμ extracellular fragment, as detected by the SBK2 probe, have been observed previously.

B1: scrambled-Cy5 probe (peptide)
peptide: GFTQPETGTDNDLWSVDNEK
modifications: not fully specified (N-terminus)
notes: Same uncertainty about the added N-terminal glycine as for SBK2-Cy5; also called scrambled probe; scrambled version of the PTPµ probe
B1: no binding [1].

B2: scrambled Texas Red probe (peptide)
peptide: GFTQPETGTDNDLWSVDNEK
modifications: not fully specified (N-terminus); also: Texas Red label, site not given here
B2: no binding (tested: 1 µM) [2].
